Assay results taken from PMC4332253 (The Journal of Cell Biology, 2015).
Ends that are not written are not given here.

T1: MBP-Cdc12 (aa 1–764) (S. pombe, UniProt Q10059 1-764)
T1 sequence (looked up): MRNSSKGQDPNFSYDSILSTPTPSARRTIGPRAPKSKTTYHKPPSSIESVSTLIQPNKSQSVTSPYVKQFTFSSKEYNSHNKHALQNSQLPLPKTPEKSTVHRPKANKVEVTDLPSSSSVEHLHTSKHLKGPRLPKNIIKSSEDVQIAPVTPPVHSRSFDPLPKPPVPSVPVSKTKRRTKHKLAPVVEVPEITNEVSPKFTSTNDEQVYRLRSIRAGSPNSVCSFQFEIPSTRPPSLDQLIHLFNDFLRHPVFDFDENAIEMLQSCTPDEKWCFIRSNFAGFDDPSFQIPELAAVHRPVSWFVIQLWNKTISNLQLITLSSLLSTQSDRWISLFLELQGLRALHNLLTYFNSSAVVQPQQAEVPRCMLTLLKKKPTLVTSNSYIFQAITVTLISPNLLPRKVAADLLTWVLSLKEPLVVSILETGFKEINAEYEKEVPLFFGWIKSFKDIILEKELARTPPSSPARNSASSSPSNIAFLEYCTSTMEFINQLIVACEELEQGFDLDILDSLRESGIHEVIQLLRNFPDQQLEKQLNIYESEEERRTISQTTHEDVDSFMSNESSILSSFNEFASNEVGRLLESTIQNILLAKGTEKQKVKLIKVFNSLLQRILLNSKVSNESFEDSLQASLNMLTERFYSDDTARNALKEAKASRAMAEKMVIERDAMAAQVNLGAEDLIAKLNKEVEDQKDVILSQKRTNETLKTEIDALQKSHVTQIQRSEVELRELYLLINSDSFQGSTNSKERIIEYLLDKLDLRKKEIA

B1: Cdc15 F-BAR (aa 19–312) (domain or fragment, S. pombe, UniProt Q09822 19-312, looked up)
chain: SVKFRDNFWGSEDAGMDALMSRTKSSLSVLESIDEFYAKRASIEREYASKLQELAASSADIPEVGSTLNNILSMRTETGSMAKAHEEVSQQINTELRNKIREYIDQTEQQKVVAANAIEELYQKKTALEIDLSEKKDAYEYSCNKLNSYMRQTKKMTGRELDKYNLKIRQAALAVKKMDAEYRETNELLLTVTREWIDRWTEVCDAFQHIEEYRLEFLKTNMWAYANIISTACVKDDESCEKIRLTLENTNIDEDITQMIQNEGTGTTIPPLPEFNDYFKENGLNYDIDQLISK

What was measured:
MBP-Cdc12 (aa 1–764) = molecular target: T1, MBP-Cdc12 (aa 1–764); assay: pull-down
Cdc15 F-BAR (aa 19–312) = molecular target: B1; assay: pull-down

binding result (MBP-Cdc12 (aa 1–764)) | Kd (Cdc15 F-BAR (aa 19–312)) [nM] | Binder
binds | – | B1
– | 1.1 | TPTPSARRTIGPRAPKSKTTY (peptide, UniProt Q10059 20-40, looked up, also: biotinylated, position not given here) [Cdc12 (aa 20–40) synthetic peptide]
